Here are results for 1 molecule from patent publication CN108424448A (UNIV ZHEJIANG, dated 2018).

This test addresses ZEBOV-VP40蛋白C端的特异的抗原肽13肽 […] (扎伊尔型埃博拉病毒 (Zaire ebolavirus)). Briefly: indirect ELISA on coated VP40 peptide (hybridoma screening, P/N≥2.1 positive). (In general: ELISA stands for enzyme-linked immunosorbent assay.)

B1: 抗埃博拉病毒VP40蛋白单克隆抗体F1B4 (antibody, V domains shown)
VH: EVRLQQSGPELGKPGASVKISCKTSGYVFTEYTIHWMKQSHGKSLEWIGNIYPKNGGTAYSQKFKGRATLSADKSSRTAYIELRSLTSEDSAVYYCARDNYGFDCWGQGTTLTVSS
VL: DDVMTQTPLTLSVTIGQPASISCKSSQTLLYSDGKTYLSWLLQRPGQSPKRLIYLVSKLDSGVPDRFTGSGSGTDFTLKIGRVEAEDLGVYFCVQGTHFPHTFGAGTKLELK
For the molecule B1, the binding result is listed as “binds”.
